doi:10.1101/2020.05.01.070730 (bioRxiv, 2020)
Numbering of substitutions follows the chain as printed.

T1: MutS R842E (Pseudomonas aeruginosa, UniProt Q9HY08 1-855, R842E)
T1 sequence: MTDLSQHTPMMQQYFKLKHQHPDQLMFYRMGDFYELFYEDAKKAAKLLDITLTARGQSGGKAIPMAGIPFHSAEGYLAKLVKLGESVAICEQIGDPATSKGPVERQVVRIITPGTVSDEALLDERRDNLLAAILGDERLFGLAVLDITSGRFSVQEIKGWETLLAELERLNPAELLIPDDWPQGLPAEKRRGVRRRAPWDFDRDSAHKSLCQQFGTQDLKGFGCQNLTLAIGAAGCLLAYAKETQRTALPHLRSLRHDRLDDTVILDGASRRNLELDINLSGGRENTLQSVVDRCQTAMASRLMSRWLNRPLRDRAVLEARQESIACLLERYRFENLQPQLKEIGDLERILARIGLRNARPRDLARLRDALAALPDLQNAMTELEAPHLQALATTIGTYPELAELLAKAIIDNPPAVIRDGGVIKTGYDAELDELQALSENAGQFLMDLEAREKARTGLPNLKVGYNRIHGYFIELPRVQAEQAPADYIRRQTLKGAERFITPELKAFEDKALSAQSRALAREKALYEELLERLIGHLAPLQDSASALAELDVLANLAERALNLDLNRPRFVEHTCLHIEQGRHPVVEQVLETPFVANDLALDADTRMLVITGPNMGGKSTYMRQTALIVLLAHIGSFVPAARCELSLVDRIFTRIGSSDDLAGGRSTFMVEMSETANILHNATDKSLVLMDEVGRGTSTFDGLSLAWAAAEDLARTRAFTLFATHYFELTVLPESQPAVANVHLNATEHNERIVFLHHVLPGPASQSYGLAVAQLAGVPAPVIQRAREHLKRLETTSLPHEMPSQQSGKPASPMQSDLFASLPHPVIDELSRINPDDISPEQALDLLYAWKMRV

T2: MutS (Pseudomonas aeruginosa, UniProt Q9HY08 1-855)
T2 sequence: T1 sequence with E842R

B1: MutS from Pseudomonas aeruginosa (natural protein, UniProt Q9HY08 1-855, looked up)
chain: T1 sequence with E842R
B2: MutSR272A (natural protein, Pseudomonas aeruginosa, UniProt Q9HY08 1-855, looked up)
chain: T1 sequence with R272A, E842R
B3: MutSF33A (natural protein, Pseudomonas aeruginosa, UniProt Q9HY08 1-855, looked up)
chain: T1 sequence with F33A, E842R
B4: MutSN279A (natural protein, Pseudomonas aeruginosa, UniProt Q9HY08 1-855, looked up)
chain: T1 sequence with N279A, E842R
B5: MutSR272E (natural protein, Pseudomonas aeruginosa, UniProt Q9HY08 1-855, looked up)
chain: T1 sequence with R272E, E842R
B6: MutSR842E (natural protein, Pseudomonas aeruginosa, UniProt Q9HY08 1-855, looked up)
chain: T1 sequence
B7: GA-pDNA (dsDNA)
DNA 1: ATGTGAATCAGTATGGTTGCTATCTGC
DNA 2: ATTTCCTTCAGCAGATAGAAACCATACTGATTCACAT
B8: CT-pDNA (dsDNA)
DNA 1: ATGTGAATCAGTATGGTTCCTATCTGC
DNA 2: B7 DNA 2 with A19T
B9: TG-pDNA (dsDNA)
DNA 1: ATGTGAATCAGTATGGTTTCTATCTGC
DNA 2: B7 DNA 2 with A19G
B10: CC-pDNA (dsDNA)
DNA 1: ATGTGAATCAGTATGGTTCCTATCTGC
DNA 2: B7 DNA 2 with A19C
B11: TT-pDNA (dsDNA)
DNA 1: ATGTGAATCAGTATGGTTTCTATCTGC
DNA 2: B7 DNA 2 with A19T
B12: AC-pDNA (dsDNA)
DNA 1: ATGTGAATCAGTATGGTTACTATCTGC
DNA 2: B7 DNA 2 with A19C
B13: TC-pDNA (dsDNA)
DNA 1: ATGTGAATCAGTATGGTTTCTATCTGC
DNA 2: B7 DNA 2 with A19C
B14: GG-pDNA (dsDNA)
DNA 1: ATGTGAATCAGTATGGTTGCTATCTGC
DNA 2: B7 DNA 2 with A19G
B15: GT-pDNA 13 nt (dsDNA)
DNA 1: ATGTGAATCAGTATGGTTGCTATCTGCTGAAG
DNA 2: B7 DNA 2 with A19T
B16: CA-pDNA (dsDNA)
DNA 1: ATGTGAATCAGTATGGTTCCTATCTGC
DNA 2: B7 DNA 2

Molecular target: the molecule itself
Experiment: native gel or EMSA

Binder | stoichiometry N
B1 | 4
B2 | 4
B3 | 4
B4 | 4
B5 | 4
B6 | 2

molecular target: T1, MutS R842E; experiment: native PAGE shift

Binder | binding result
B7 | binds
B8 | binds
B9 | binds
B10 | binds
B11 | binds
B12 | binds
B13 | binds
B14 | binds

molecular target: T2, MutS; experiment: native PAGE shift

Binder | binding result
B8 | binds

molecular target: T2, MutS; experiment: native PAGE shift; remark: another data set of the same source

Binder | binding result
B12 | binds

molecular target: T1, MutS R842E; experiment: native PAGE shift; remark: another data set of the same source

Binder | binding result
B15 | binds

molecular target: T2, MutS; experiment: native PAGE shift; remark: another data set of the same source

Binder | binding result
B15 | binds
B7 | binds
B10 | binds
B13 | binds
B14 | binds

molecular target: T2, MutS; experiment: native PAGE shift; remark: another data set of the same source

Binder | binding result
B9 | binds
B11 | binds
B16 | binds
